# Measured values reported in patent publication US20250136720A1 (Boehringer Ingelheim, published 2025).
# Numbering of substitutions follows the chain as printed. Names may count otherwise.
# B1: CD137 #2 (B21.V16) + FAP #2 (A11 VK3/VH3) (bispecific antibody, human IgG1, kappa, L234A L235A)
# heavy: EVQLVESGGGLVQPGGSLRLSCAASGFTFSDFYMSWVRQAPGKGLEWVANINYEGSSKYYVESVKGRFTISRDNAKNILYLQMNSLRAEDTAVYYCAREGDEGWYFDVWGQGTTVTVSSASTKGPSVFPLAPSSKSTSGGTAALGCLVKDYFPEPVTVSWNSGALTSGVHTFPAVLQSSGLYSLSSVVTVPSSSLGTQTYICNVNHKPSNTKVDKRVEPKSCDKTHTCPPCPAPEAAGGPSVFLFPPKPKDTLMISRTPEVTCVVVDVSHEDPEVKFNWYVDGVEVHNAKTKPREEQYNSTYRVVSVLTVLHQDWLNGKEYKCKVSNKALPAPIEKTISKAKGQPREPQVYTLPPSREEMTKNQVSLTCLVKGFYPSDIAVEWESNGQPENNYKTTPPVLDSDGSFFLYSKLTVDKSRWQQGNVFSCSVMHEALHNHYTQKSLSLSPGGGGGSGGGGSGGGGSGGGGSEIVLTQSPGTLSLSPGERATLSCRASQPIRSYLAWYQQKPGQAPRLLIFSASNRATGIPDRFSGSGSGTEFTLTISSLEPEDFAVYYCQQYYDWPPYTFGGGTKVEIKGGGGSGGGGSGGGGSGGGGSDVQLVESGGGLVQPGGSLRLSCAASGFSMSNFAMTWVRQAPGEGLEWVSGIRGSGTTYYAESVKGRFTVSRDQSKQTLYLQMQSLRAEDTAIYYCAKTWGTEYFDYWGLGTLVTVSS
# light: DIQMTQSPSSLSASVGDRVTITCKASQDISSAVAWYQQKPGKAPKLLIYSASSRYTGVPSRFSGSGSGTDFTLTISSLQPEDFAVYYCQQHYSNPWTFGQGTKLEIKRTVAAPSVFIFPPSDEQLKSGTASVVCLLNNFYPREAKVQWKVDNALQSGNSQESVTEQDSKDSTYSLSSTLTLSKADYEKHKVYACEVTHQGLSSPVTKSFNRGEC
# B2: CD137 #2 (B21.V16) + FAP #5 (C3 VK1/VH4) (bispecific antibody, human IgG1, kappa, L234A L235A)
# heavy: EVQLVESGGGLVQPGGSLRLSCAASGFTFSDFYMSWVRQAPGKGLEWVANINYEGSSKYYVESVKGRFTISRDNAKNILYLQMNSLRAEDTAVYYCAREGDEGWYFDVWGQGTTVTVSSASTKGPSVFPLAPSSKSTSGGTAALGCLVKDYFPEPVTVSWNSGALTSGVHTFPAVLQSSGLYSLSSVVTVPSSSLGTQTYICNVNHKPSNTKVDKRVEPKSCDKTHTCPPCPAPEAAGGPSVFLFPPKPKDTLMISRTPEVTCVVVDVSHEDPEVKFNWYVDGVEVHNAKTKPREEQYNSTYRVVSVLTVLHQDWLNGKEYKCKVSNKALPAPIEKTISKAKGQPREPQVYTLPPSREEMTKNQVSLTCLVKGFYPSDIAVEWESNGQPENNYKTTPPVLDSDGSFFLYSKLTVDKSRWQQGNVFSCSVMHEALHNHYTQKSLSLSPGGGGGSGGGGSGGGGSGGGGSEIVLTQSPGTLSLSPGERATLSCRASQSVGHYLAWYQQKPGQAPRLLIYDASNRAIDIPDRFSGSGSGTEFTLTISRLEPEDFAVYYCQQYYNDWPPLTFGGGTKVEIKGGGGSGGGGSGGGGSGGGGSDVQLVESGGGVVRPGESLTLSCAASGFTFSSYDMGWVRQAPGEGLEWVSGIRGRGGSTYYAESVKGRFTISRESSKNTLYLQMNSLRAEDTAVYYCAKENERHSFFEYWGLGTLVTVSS
# light: B1 light
# B3: CD137 #4 (B21.V25) + FAP #5 (C3 VK1/VH4) (bispecific antibody, human IgG1, kappa, L234A L235A)
# heavy: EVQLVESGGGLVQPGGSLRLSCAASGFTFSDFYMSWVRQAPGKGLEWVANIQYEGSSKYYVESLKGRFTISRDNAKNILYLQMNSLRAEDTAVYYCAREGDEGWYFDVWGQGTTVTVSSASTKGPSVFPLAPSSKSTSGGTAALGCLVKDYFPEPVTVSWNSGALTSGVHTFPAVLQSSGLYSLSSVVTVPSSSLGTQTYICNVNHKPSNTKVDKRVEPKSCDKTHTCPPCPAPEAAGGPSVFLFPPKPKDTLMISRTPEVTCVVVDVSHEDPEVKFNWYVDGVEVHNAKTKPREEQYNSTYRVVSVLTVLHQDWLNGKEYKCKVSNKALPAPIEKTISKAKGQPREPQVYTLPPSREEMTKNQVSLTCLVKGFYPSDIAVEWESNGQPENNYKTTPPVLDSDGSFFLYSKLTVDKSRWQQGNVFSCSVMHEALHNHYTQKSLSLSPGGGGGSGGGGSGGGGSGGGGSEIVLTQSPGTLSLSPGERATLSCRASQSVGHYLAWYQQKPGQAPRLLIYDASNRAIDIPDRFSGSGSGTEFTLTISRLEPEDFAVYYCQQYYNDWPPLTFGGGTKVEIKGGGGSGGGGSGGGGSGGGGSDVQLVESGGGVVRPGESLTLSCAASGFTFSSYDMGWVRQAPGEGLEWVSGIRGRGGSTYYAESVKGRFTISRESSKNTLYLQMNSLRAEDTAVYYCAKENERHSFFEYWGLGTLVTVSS
# light: B1 light with K24R, D28S, S31T, S50A, S53Y, R54L, T56S
# B4: CD137 #8 (A49.V43) + FAP #2 (A11 VK3/VH3) (bispecific antibody, human IgG1, kappa, L234A L235A)
# heavy: not shown
# light: EIVMTQSPLSLPVTPGEPASISCRSSQSLLYSNGYNHLDWYLQKPGQSPQLLIYLGSNRASGVPDRFSGSGSGTDFTLKISRVEAEDVGVYYCMQALQTPPTFGQGTKLEIKRTVAAPSVFIFPPSDEQLKSGTASVVCLLNNFYPREAKVQWKVDNALQSGNSQESVTEQDSKDSTYSLSSTLTLSKADYEKHKVYACEVTHQGLSSPVTKSFNRGEC
# B5: CD137 #8 (A49.V43) + FAP #3 (A11 VK7/VH1) (bispecific antibody, human IgG1, kappa, L234A L235A)
# heavy: not shown
# light: B4 light
# B6: CD137 #A46 (antibody, human IgG1, V domains shown)
# VH: QVQLAQSGAEVKKPGASVKVSCKASGYTFSSFPMHWVRQAPGQRLEWMGWSNAGIGNTKYSQEFQGRVTITRDTSASTAYMELSSLRSEDMAVYYCAREGLTGAFDYWGQGTLVTVSS
# VL: DIVMTQSPLSLPVTPGEPASISCRSSQSLLHSNGYNYLGWHLQKPGQSPQLLIYLGSYRASGVPDRFSGSGSGTDFTLKISRVEAEDVGVYYCMQPLQIPLTFGGGTKVEIK
# notes: human IgG1 KO (L234A/L235A)/kappa chimeric IgG
# B7: CD137 #A57 (antibody, human IgG1, V domains shown)
# VH: B6 VH with A5V, A24T, S30T, F32Y, I55N, I70L, Y80F
# VL: not shown
# notes: as for B6
# B8: CD137 #B9 (antibody, human IgG1, V domains shown)
# VH: B6 VH with A5V, F29L, S30T, S31N, S51T, I55N, F64L, I70M, T78I, A92G
# VL: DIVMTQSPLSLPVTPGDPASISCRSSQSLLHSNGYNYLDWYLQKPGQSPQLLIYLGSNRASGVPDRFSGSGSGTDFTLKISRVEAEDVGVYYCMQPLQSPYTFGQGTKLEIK
# notes: as for B6
# B9: CD137 #A2 (antibody, human IgG1, V domains shown)
# VH: QVQLVQSGADVKKPGASVRVSCKASGYTFTSYPIHWVRQAPGHRLEWMGWSNAGIGNAKYSQEFQGRVTITRDTSASTAYMDLSSLTSEDLAVYYCAREGVAGAFDIWGQGTMVTVSA
# VL: DIVMTQSPLSLPVTPGEPASISCRSSQNLLHSNGYNYLDWYLHKPGQSPQLLIYLGSIRASGVPDRFSGSESGTDFTLKISRVEAEDVGIYYCMQPLQIPYTFGQGTKLELK
# notes: as for B6
# B10: CD137 #A45 (antibody, human IgG1, V domains shown)
# VH: B6 VH with A5V, T28I, S30T, S31N, F32Y, E63D, S77N, A79S, L101V
# VL: B9 VL with N28S, Y35F, H43Q, Y54F, E86D, L111I
# notes: as for B6
# B11: CD137 #B10 (antibody, human IgG1, V domains shown)
# VH: QVQLVQSGAEVKKPGASVKVSCKASGYTFTNYPMHWVRQAPGQRLEWMGWSNAGSGNTKYSQDFQGRVSITRDTSASTAYMELSSLKSEDMAIYYCAREGVAGAFDIWGQGTVVTVSS
# VL: B6 VL with S28R, Y35F, H41Y, Y58H, L101Y, G105Q, V109L
# notes: as for B6
# B12: CD137 #A41 (antibody, human IgG1, V domains shown)
# VH: QVQLQESGPGLVKPSETLSLNCTVSGGSISNYYWSWIRQPAGKGLEWIGRIYTSGNTNYNPSLKSRVTMSVDTSKNQFSLKLTSVTAADTAVYYCARDGNWNYADAFDIWGQGTMVTVSS
# VL: DIQMTQSPSSVSASVGDRVTITCRASQGISSWLAWFQQIPGKAPKLLIYTASGLQSGVPSRFSGSGSGTDFTLTISSLQPEDFATYYCQQTNSFPFTFGPGTKVDIK
# notes: as for B6
# B13: CD137 #A12 (antibody, human IgG1, V domains shown)
# VH: QVQLKQSGPGLVQPSQSLSITCTVSGFSLTSHGVHWVRQSPGKGLEWLGVIWSGGYTDYNAAFISRLSISTDNSKSHIFFKMNSLQADDTAIYYCARNGASYYYAMDYWGQGTSVTVSS
# VL: DIVMTQAAFSNPVTLGISASISCRSSKSLLHSNGITYLYWYLQKPGQSPQLLIYQMSNLASGVPDRFSSSGSGTDFTLRISRVEAEDVGVYYCAQNLELPLTFGAGTKLELK
# notes: human IgG1 KO (L234A/L235A)/kappa chimeric IgG; also called CD137 #Al2
# B14: CD137 #A1 (antibody, human IgG1, V domains shown)
# VH: QVQLVQSGAEVKKPGASVKVSCKASGYTLTNYPMHWVRQAPGQRPEWMGWSNAGNGNTKYSQEFQDRVTITRDTSASTAYMELSSLRSEDMAVYYCTREGVTGGFDIWGQGTMVTVSS
# VL: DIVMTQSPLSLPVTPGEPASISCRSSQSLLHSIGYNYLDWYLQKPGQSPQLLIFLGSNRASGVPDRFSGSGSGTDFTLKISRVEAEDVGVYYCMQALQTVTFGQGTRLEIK
# notes: as for B6
# B15: CD137 #B12 (antibody, human IgG1, V domains shown)
# VH: B14 VH with L29F, N31T, P45L, N55I, V68I, T71S, A79V, T97A, T102A
# VL: B9 VL with N28S, D39N, H43Q, I90V, L111I
# notes: as for B6
# B16: CD137 #A44 (antibody, V domains shown)
# VH: B14 VH with L29F, M34I, P45L, Q62P, A79V, A92S, T97A, G104A
# VL: not shown
# notes: as for B6
# B17: CD137 #A30 (antibody, human IgG1, V domains shown)
# VH: QVQLQQPGTEFVKPGASVKLSCKASDYTFTSHWMHWVKQRPGQGLEWIGEIDPSDSYTNYIQKFKGKATLTVDKSSSTAYMQLSSLTSEDSAVYYCARGDYYGTRYFDVWGAGTTVIVSS
# VL: DIVMTQSPSSLSVSAGEKVTMSCKSGQNLFNSGNQKNYLAWYQQKPGQPPRLLIYGASTRESGVPDRFTGSGSGTDFTLTISSVQAEDLAVYYCQNDQSYPPTFGAGTKLELK
# notes: as for B6
# B18: CD137 #A4 (antibody, human IgG1, V domains shown)
# VH: DVQLQESGPGLVKPSQSLSLTCTVTGYSITSDYVWNWIRQFPGNKLEWMGYISYSGGTRYNPSLKSRISITRDTSENQFFLQLDSVTTEDTATFYCARSGNWDWYFDAWGTGTTVTVSS
# VL: DIQMTQTTSSLSASLGDRVTISCRPSQDISNYLDWYQQKPDGTVKLLIYSTSRLPSGVPSRFSGSGSGTDYSLTISNMEQEDIATYFCQQGNTFPPTFGGGTKLEIK
# notes: as for B6
# B19: CD137 #B3 (antibody, human IgG1, V domains shown)
# VH: DVQLVESGGDLVQPGGSRKLSCAASGFTFSSFGMHWVRQAPERGLEWVAYISSGSSTIYYADTVKGRFIISRDNPKNTLFLQMTSLRSEDTAMYYCARDWVDYWGQGTSVTVSS
# VL: QIVLTQSPAIMSASPGEKVTITCSASSSVNYIHWFQQKPGTSPKLWIYSTSNLASGVPARFSGRGSGTSYSLTISRMEAEDAATYYCLQGSSYPWTFGGGTKLEIK
# notes: as for B6
# Molecular target: T1, Human CD137 on Jurkat cells (human, UniProt Q07011 24-255)
# Test: cell-based or functional assay
# Parameters: IC90; Jurkat-CD137 NFkB-luciferase, HT1080-FAP co-culture / EC90; Jurkat-CD137 NFkB-luciferase, HT1080-FAP co-culture: unit not given beside the values
Binder,"EC90; Jurkat-CD137 NFkB-luciferase, HT1080-FAP co-culture","IC90; Jurkat-CD137 NFkB-luciferase, HT1080-FAP co-culture","Total AUC; Jurkat-CD137 NFkB-luciferase, HT1080-FAP co-culture"
B1,3.14,127,3.3e+06
B2,0.87,74.3,3.6e+06
B3,1.38,77.8,3e+06
B4,5.04,467,2.5e+07
B5,0.96,60.8,3.15e+07

# Molecular target: T1, Human CD137 on Jurkat cells
# Test: cell-based or functional assay
# Remark: another data set of the same source
Binder,"Average EC50; Jurkat-CD137 NFkB-luciferase, HT1080-FAP co-culture [nM]","Average EC90; Jurkat-CD137 NFkB-luciferase, HT1080-FAP co-culture [nM]","Average IC50; Jurkat-CD137 NFkB-luciferase, HT1080-FAP co-culture [nM]","Average IC90; Jurkat-CD137 NFkB-luciferase, HT1080-FAP co-culture [nM]","Ratio IC50/EC50; Jurkat-CD137 NFkB-luciferase, HT1080-FAP co-culture","Ratio IC90/EC90; Jurkat-CD137 NFkB-luciferase, HT1080-FAP co-culture"
B1,0.165,1.47,847,87.8,5130,59.7
B2,0.233,2.23,538,110,2300,49.4
B3,0.175,1.25,559,98.6,3190,79
B4,0.327,2.59,958,210,2930,81.2
B5,0.17,1.01,362,58.3,2130,57.6

# Molecular target: T1, Human CD137 on Jurkat cells
# Test: flow cytometry, Jurkat cells;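 further: binding of antibody-containing supernatants to NF-kB-Luc2/4-1BB Jurkat cells, detected by flow cytometry with a PE-labelled anti-human IgG-Fc secondary antibody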
# Method: Briefly, HTP supernatants containing recombinant IgG1 (KO) antibodies, were assayed by flow cytometry for binding to the NF-kB-Luc2/4-1BB Jurkat cell line. […] The cells were washed x3 with staining buffer. A Goat F(ab′)2 anti-human IgG-Fc PE secondary antibody was added to the cells and the plate was incubated for 30 min at 4° C. The cells were wash ×3 with staining buffer.
row,Binder,binding result
1,B6,binds
2,B7,binds
3,B8,binds
4,B9,binds
5,B10,binds
6,B11,binds
7,B12,binds
8,B13,binds
9,B14,binds
10,B15,binds
11,B16,binds
12,B17,binds
13,B18,binds
14,B19,binds
